# Experiment: yeast display, Sf9 membrane polyspecificity reagent, FACS + sequencing; frameworks hold sequencing errors
# Summary of the method: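 A synthetic nanobody library was expressed on Saccharomyces cerevisiae BJ5465 by galactose induction for 36–48 hours. The library was stained for 1 hour at 4 °C with 10% biotinylated, detergent-solubilized Sf9 membrane reagent and enriched with streptavidin microbeads before FACS. Low and high (top ~1%) gates were set on anti-HA fluorescence for expression and streptavidin fluorescence for reagent binding, and each polyreactivity label reflects the gate of origin.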
row,Sequence,polyreactivity (PSR sort gate)
1,QVQLVETGGGLVQAGGSLRLSCADSGSIYQKNAMGWYRQPPGKERELVAAITSGGTTYYADSVKGRFTISRDNAKNTVYLQMYSLKPEDTAVYYCAKYHCRLSFSRYPYDYWGQGTQVTVSS,high polyreactivity
2,QVQLVETGGGLVQAGGSLRLSCADSGSTFPGNGMVWSRQAPGKERELVAGISSGGRTYYADSVKGRVTISRDNAKNTVYLQLNRLKPEDTAVYYCATEGDYFAKYDRMDYWGQGTQVTVSS,low polyreactivity
3,QVQLVETGGGLVQAGVSLRLSSAASGITIGKNAMGWYRQEPGKESELVAAITRDGGTNYADSVKGRFTISRDNSKNTVYLQMNRLKPEDTAVYYCAKRAYFYYGRYDYWGQGTQVTVSS,low polyreactivity
4,QVQLVETGGGLVQASGSLRLSSAASGRIFTRYAMGWYRQAHGKERELVPAITRGGSTYYADSVKGRFTISRDNAKNTVYLQMNSLKPEDTAVYYCAADWFGISVVRDPFDHWGQGTQVTVSS,high polyreactivity
5,QVQLVETGGGLVQEGGSLRLSCAASGRTFYSYAMGWYRQAPGKERELVARISSGGSTNYADSVKGRFTISRDNAKNTVYFQMNSLKPEDTAVYYCAAVRHRAMDYWGQGTQVTVSS,low polyreactivity
6,QVQLVETGGGVVQAGGSLRLSCAASGRTFGFNAMGWYIQAPGKERELVASITSTGGRTYYADSVKGLFTISRDNAKNTVYLQMNCLKPEDTAVYYCAAGSRSRAPYYRTIVDTYGYWGQGTQVTVSS,low polyreactivity
7,QVQLVETGGVLVQAGGSLRLSFAASGIIFSISALGGYRQAPGKERELVAAITYSGGRTYYADSVKGRFTISRDTAKNTVYLQMNSLKPEDTAVYYCAADYYYYGSYYPVEYWGQGTQVTVSS,high polyreactivity
8,QVQLVETRGGLVQAGGRLRLSCAASGGIFPVNAMGWYRQAPGKERELVAAISWSVGRTYYADSVKGRFTISRDNAKNTVYLQMISLKREDTAVYYCAAEWFGVYRRYKYDYCGQGTQVTVSS,low polyreactivity
9,QVQLVETVGGLLQAGGSLRLSCPASGSTLYYNTMGWYRQAPGKERELVATISSRGGRTHYADSVKGRFTISRDNAKNTVYLQMNSLKPEDTAVYYCNALPRVVYTVGQSPFYYWGQGTQVTVSS,high polyreactivity
10,QVQLVETVGGLVQAGGSLRLSCAASGSIFTHYAMGWYREAPGKERELVAAITWSGGSTYYADSVKGRFTISRDNAKNTVYLQMNSLIPEDTAVYYCNVAWVGVSLVYGPFEYDYWGQGTQVTVSS,high polyreactivity
11,QVQLVETWGGLVQAGGSLRLSCAASGRNFRTNAMGWYRQAPGKERELVAAITSDGTYYADSVKGRFTISRDNAKNNVYLQMNSVKPEDTAVYYCNVDDRETRDDYWGQGTQVTVSS,low polyreactivity
12,QVQLVGSGGGLVQAGGSLRLSCAASGLTFNWYAMGWYRQAPGKERELVASVSKRGGSTYYADSVKGRFTISRDNAKNNVYLQMNSLKPEDTAVYYCAASRYPSYDYWGQGTQVTVSS,high polyreactivity
13,QVQLVKSGGGLVQAGGSLRLSCAASGGTFSFYTMGWYRQAPGKERELVAAIDSTGRTNYADSVKGRFTISRDNANHTVYLQMNSLKPEDTAVYYCAAGPPRADYDYWGQGTQVNVSS,low polyreactivity
14,QVQLVKSGGGLVQAGGSLRLSCAASGSTFYNAMGWYRQAPGKEREWVAAISIGGSTYYADSVKGRFTISRDNAKNTVYLQMNSLKPEDTAVYYCNSDLYYWLRYYDRNDYWGQGTQVTVSS,low polyreactivity
15,QVQLVKSGGGLVQAGGSLRLSCAASRFIIPEYTMGWYRQAPGKARELVAAISGSGGSTYYADSVKGRFTISRDNAKHTVYLQMNSLKPEDTAVYYCATAFIVPFPGSDYWGQGTQVTVSS,low polyreactivity
16,QVQLVQSGGGFVQAGGSLRVSCAASGRTFGVYAMGWYRQAPGKEREFVAAISYSGGRTYYADSVKGRFTISRDNAKNTVYLQMNSLKPEDTAVYSCNARAFPYYRRFDYWGQGTQVTVSS,high polyreactivity
17,QVQLVQSGGGLLQAGGSLRLSCAASGSINIYNDMGWNRQATGKERELVAAITSSGGSTYYADSVKGGFTISRDNGKNTVYLQMNSLKPEDTAVYYCAADYVDHKVWYDYWGHGTQVTVSS,low polyreactivity
18,QVQLVQSGGGLLQAGGSLRLSSAASGYTFGYYARGCYREAPGQERELVAAITSGGTTNYADTVKGRFTISRDNAKNTVYLQINSLKPEDTAVSYCNAVCTFVRYWTDGRDGVTYDYWGQGTQVTVSS,low polyreactivity
19,QVQLVQSGGGLVQAGGSLRLICAASGSIFLYYAMGWYRQAPAKERELVAGIRRGGRKNYADSVKGRFTISRDNSKNTVYLQLNSLKPEDTGVYYCAKGGYWGQCTQVTVSS,high polyreactivity
20,QVQLVQSGGGLVQAGGSLRLSCAASGRTFSKYVLGWYRQAPGKERQLVAAITYSGGYTYYADSVKGRFTISRDNAKNTVYLQMYSLKPEDTAVYYCAAESYAHVSNGYDYWGQGTQVTVSS,low polyreactivity
21,QVQLVQSGGGLVQAGGSLRLSCAASGSIFYDYAMGWYRQAPGKERELVAAINSGVSTSYADSVKGRFTISRDNAKNTVYLQMNSLKPEDTAVYYCAKDGSSPSPWYGGFGYWGQGTQVTVSS,low polyreactivity
22,QVQLVQSGGGLVQAGGSLRLSCAASGSIINKYAMGWYRQAPGKERELVAAISFSGGSTYYADSVKGRFTISRDNAKITVYLQMNSLKPEDTAVYYCAAYHRPYQSYYWGKGTQVTVSS,high polyreactivity

row,Sequence,polyreactivity (PSR sort gate)
1,QVQLVQSGGGLVQAGGSLRLSCAASGSTFYLNAMGLYIQAPGKERELLAAITDAGSTNYADSVKGRFTISRDNAKNTVYLQMNSLKPEDTAVYYCNAEPRYYSGGHGYDYWGQGTQVTVSS,low polyreactivity
2,QVQLVQSGGGLVQAGGSLRLSCAASGSTFYTYGLGWYRQAPGKARQFVAAISYRGGSTYYADSVKGRFTISRDNAKNTVYLQMNSLKPEVTAVYYCYVDGVVVGTIRGGYDYWGQGTQVTVSS,low polyreactivity
3,QVQLVQSGGGLVQAGGSLRLSCAASGYIFNFNPMGWNRQAPGKERELVAVISDRDDTTYYADSVKGRFTISRDNAKNTVYLQMNSMKPEDTAVYYCAAVGDTYVDDQYDYWGQGTQVTVSS,low polyreactivity
4,QVQLVQSGGGLVQAGGSLRLSCAATGSTFRIYAIGWYRQAPGKEREFVAAISDRGGRTYYADSVKGRFTISRDNAKNTVYLQMNSLKPEDTAVYYCAAVKLLSSAPGDDGQMNYWGQGTQVTVSS,low polyreactivity
5,QVQLVQSGGGLVQAGGSLSLSCAASGRIFGINAMGWYRQAPGKESELVAAISSGGSTYYADSVKGRFTISLDNAKNTVYLQMNSLKPEDTAVYYCAADYDSYVSHDRGVWRDYWGQGTQVTVSS,low polyreactivity
6,QVQLVQSRGGLVQAGGSLRLSCAASGYIFWYYVKGWNRQAPGKERELVASITIGGGRTYYADSVKGRFTISRDFAKNSVYLQMNCMKPEDTAVYYCAAVTTPYNSDFDYWGQGTQVTVSS,low polyreactivity
7,QVQLVQTGRGLVQAGGSLRLICAASGIIFKYYGMGWYRQAPGKERELVAAITDRGGSTYYADSVKGRFTISRDHAKNTVYLQMNSLKPEDTAVYYCSAVPSSGKSGFRGGYWGQVTQVTVSS,high polyreactivity
8,QVQLVVSGGGLVQAGCTHRISCAPSGRISKLYAMGWSIPAPGKERELVAAISWRGGSTYYADSVKGRFTISRDNAKITVYLQLYSLKPEDTAVYFCNKAYPADDDYWGQGTQVSVSS,low polyreactivity
9,QVQLVVSGGGLVQAGGILRFSCAASGRTIWYNAMGWYRQAPGKERELVASISRSGGSTYYADSVKGRFTISRDNAKNTVYLQMNSLKPEDTAVYYCAAESFDYTTWYGYWGQGTQVTVSS,high polyreactivity
10,QVQLVVSGGGLVQAGGRLRLSCAASGSSFVGYAMGWYRQAPGKERELVAAISRRGGSTYYADSVKGRFTISRDNAKNTVYLQMNRLKPEDTSVYYFAARFKVSYYNLYSYGYWRQGTQVTVSS,high polyreactivity
11,QVQLVVSGGGLVQAGGSLRLSCAASGITFYEYAMGWYRQSPGKESELVATITSGGNTNYADSVKGRFTISRDNAKNTGYLLMNSLIPEDTSVYYCAASVGYYSRYGYGYWGQGTQVTVSS,low polyreactivity
12,QVQLVVSGGGLVQAGGSLRLSCAASGLTFWKYTLGWYRQAPGKEREWVAAMSISGTNTYYADSVKGRFTISRDNAKNTVYLQMNSLKPEDTAVYYCAAVRGYPPTNYYYCGQGTQVTVSS,high polyreactivity
13,QVQLVVSGGGLVQAGGSLRLSCAASGRIFVANAMGWYRQAPGKERELVAAISGRGSRTYYADSVKGRFTISRDNAKNTVYLQMNSLKPEDTAVYYCAARYRYDGRYDYWGQGTQVTVSS,high polyreactivity
14,QVQLVVSGGGLVQAGGSLRLSCAASGRIIFWYALGWYRQAPGKERELVAGITSGGSTNYADSVKGRFTISRDNAKNTVYLQMMRLKPEVTAVYYCNTVDSIPIGSGLYYYWGQGTQVTVSS,low polyreactivity
15,QVQLVVSGGGLVQAGGSLRLSCAASGSIFGENAMGWYRQAPGKERELVAAITWSGASTYYADSVKGRFTISRDNAKNTVFLKMNSLKPEDTAVYYCNDDRFVRFSTFDYWGQGTQVTVSS,high polyreactivity
16,QVQLVVSGGGLVQAGGSLRLSCAASGSTFSRNAMGWYRQAPGKERELVASISWSGARTYYADSVKRRFTISRDNAKNTVYLQMNSLKPEDTAVYYCAKFRSYRGPYNFWGQGTQVTVSS,high polyreactivity
17,QVQLVVSGGGLVQAGGSLRLSCAASGSTLVIYAMGGYRQAPGKERELVAAIRRTGGSTYYADSVKGRFTISRDNAKTTVDLQKNSLKPEDTAVYYCAKRSYTGYEYWGQGTQETVSS,low polyreactivity
18,QVQLVVSGGGLVQAGGSLRLSCAPSGRTFKPYVMGWYRQAPGKERELVAAISSRGGSTYYADSVKGRFTISRDNEKTTVFLQMNSLKPEDTAVYYCNAAYWFSNKNGYWGQGTQVTVSS,high polyreactivity
19,QVQLVVSGGGLVQAGGSLSLSWDASGRTFARYTMGWYRQAPGKERELVASITRGGSPYYADSVKGRFTISRDNAKNYVYLQMNSLKAEDSSVFYCAARFPQHNYWAMDYCGQGTQVTVSS,high polyreactivity
20,QVQLVVSRGGLVQAGGSLRLSCAASGSTFYYNAMGWYRQAPGKERELVAAISRSGGRTYYADSVKGRFTISRDNAKNTVYLQMNSLKPEDTAVYYCAAEYFDWWVTYDYWGQGTQVTVSS,high polyreactivity
21,QVQLVYSGGGLVQAGGSLRISCAPSGRTYRKYAMGWYIQAPGKERELVAANSRSGGSTYYANSVKGRFTISRDIAKNTFYLQMNSLKPDDTAVYYCAAVPVHTGSLYWGFTTGYDYWGQVTQVTVSS,low polyreactivity

# From the nanobody polyreactivity screen of Harvey et al. (2022)
